The results in this text go back to US20240368675.

For this data set, the system named is T1, Gs12-10 (uncultured bacterium (metagenome)?).
T1 sequence: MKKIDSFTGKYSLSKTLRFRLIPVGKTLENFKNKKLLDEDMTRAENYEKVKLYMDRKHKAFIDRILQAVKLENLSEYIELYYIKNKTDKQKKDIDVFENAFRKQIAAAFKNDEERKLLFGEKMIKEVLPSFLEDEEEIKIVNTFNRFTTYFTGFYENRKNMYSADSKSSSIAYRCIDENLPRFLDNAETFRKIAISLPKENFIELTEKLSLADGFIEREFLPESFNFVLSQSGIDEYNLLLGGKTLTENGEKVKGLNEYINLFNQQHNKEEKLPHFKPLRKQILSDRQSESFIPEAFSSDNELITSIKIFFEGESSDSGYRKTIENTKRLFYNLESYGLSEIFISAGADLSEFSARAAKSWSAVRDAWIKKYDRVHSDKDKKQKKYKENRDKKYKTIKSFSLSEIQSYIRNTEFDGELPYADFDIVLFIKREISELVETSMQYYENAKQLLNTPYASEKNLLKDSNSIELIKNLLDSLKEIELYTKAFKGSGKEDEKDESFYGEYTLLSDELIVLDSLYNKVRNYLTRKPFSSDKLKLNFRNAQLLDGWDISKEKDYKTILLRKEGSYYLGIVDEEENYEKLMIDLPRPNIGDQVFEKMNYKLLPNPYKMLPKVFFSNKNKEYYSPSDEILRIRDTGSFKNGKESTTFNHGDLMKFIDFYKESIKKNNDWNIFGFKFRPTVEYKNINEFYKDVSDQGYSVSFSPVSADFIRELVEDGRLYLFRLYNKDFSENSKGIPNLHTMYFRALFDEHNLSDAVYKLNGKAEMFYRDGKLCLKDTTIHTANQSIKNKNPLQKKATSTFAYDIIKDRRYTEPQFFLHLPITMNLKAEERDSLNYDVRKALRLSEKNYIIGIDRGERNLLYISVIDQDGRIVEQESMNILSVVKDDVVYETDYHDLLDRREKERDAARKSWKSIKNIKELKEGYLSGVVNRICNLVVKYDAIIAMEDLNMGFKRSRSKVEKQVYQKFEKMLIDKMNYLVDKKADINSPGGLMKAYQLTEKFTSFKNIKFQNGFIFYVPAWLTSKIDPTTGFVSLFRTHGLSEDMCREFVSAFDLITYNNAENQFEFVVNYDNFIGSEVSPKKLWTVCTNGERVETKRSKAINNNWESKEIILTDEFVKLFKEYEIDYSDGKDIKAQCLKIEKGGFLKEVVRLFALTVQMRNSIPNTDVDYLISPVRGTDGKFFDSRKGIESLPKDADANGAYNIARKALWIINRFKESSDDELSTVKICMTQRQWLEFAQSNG
Nature of the data set: cleavage_in_vitro. The note with it: PAM ATTT; CutSmart buffer, 37 C, 2 h.

In turn, “crRNA-ATTT pUC19 ; pUC19 circular plasmid” showed an activity of 100 % linearised.
